Source: patent US8409836B2, “Treatment of cellulosic material and enzymes useful therein” (Roal Oy, priority 2005, dated 2013)
Each block holds one molecule with its values, some of them ahead of it.

Assays:
[1] = Hydrolysis with CBH enzyme mixtures, spruce; assay type: biochemical; settings: additional enzymes EGII, bG; 48 h, 45° C., pH 5.0
Experimental: (§1) The performance of the purified recombinant cellobiohydrolases was evaluated in the hydrolysis studies with purified T. reesei enzymes. Hydrolysis was carried out with controlled mixtures of purified enzymes on several pre-treated substrates. […] In addition, pure T. reesei cellulases (purified as described by Suurnäkki et al., 2000) were used in the enzyme mixtures. The cellobiohydrolases used in the experiment were:
(§2) Each CBH/Cel7 to be tested (dosage 14.5 mg/g dry matter of substrate) was used either together with EGII/Cel5A of T. reesei (3.6 mg/g) or with a mixture containing T. reesei EGI/Cel7B (1.8 mg/g), EGII/Cel5A (1.8 mg/g), xylanase pI 9 (Tenkanen et al. 1992) (5000 nkat/g) and acetyl xylan esterase (AXE) (Sundberg and Poutanen, 1991) (250 nkat/g). All mixtures were supplemented with additional β-glucosidase from a commercial enzyme preparation Novozym 188 (176 nkat/g d.w.). Triplicate tubes containing the enzyme mixture and 10 mg (dry matter)/ml of the substrate suspended in 0.05 M sodium acetate were incubated in mixing by magnetic stirring at 45° C. for 48 h. Reference samples with inactivated enzymes and corresponding substrates were also prepared. The release of hydrolysis products was measured as reducing sugars with DNS method using glucose as standard (Table 30).
Washed steam pre-treated spruce fibre (impregnation with 3% w/w SO2 for 20 min, followed by steam pre-treatment at 215° C. for 5 min), dry matter 25.9% (SPRUCE).

[2] = pH optimum of recombinant CBH/Cel7 proteins; assay type: biochemical; settings: McIlvaine buffer, pH range 3.0-8.0, MUL, 50° C., 10 min
Experimental: The recombinant CBH/Cel7 enzyme preparations were characterized in terms of pH optimum and thermal stability. The pH optimum of the recombinant CBH/Cel7 proteins from Thermoascus aurantiacus, Chaetomium thermophilum, and Acremonium thermophilum were determined in the universal McIlvaine buffer within a pH range of 3.0-8.0 using 4-methylumbelliferyl-β-D-lactoside (MUL) as a substrate (FIG. 3A). The pH optimum for Ct Cel7A and At Cel7A enzymes is at 5.5, above which the activity starts to gradually drop. The pH optimum of the recombinant crude Ta Cel7A is at 5.0 (FIG. 3A). Thermal stability of the recombinant Cel7 enzymes was determined by measuring the MUL activity in universal McIlvaine buffer at the optimum pH with reaction time of 1 h.

[3] = Hydrolysis with CBH enzyme mixtures, willow; assay type: biochemical; settings: additional enzymes EGII, bG, 48 h, 45° C., pH 5.0
Experimental: as §1, §2
Washed steam pre-treated willow fibre (pre-treatment for 14 min at 210° C.), dry matter 23.0% (WILLOW).

[4] = Hydrolysis with CBH enzyme mixtures, Avicel; assay type: biochemical; settings: additional enzymes EGII, bG; 48 h, 45° C., pH 5.0
Experimental: as §1, §2
Crystalline cellulose (Avicel)

[5] = Hydrolysis with CBH enzyme mixtures, corn stover; assay type: biochemical; settings: additional enzymes EGII, bG, 48 h, 45° C., pH 5.0
Experimental: as §1, §2
Washed wet oxidized corn stover fibre (WOCS).

[6] = substrate: O=[N+]([O-])c1ccc(O[C@@H]2O[C@H](CO)[C@@H](O[C@@H]3O[C@H](CO)[C@H](O)[C@H](O)[C@H]3O)[C@H](O)[C@H]2O)c(Cl)c1; assay: Michaelis-Menten kinetic constants on CNPLac; assay type: biochemical, Trichoderma reesei; settings: other: Tr Cel7A, 50 mM sodium phosphate pH 5.7, 22° C.
Experimental: (§3) The Michaelis-Menten and cellobiose inhibition constants were determined from the cellobiohydrolases produced heterologously in T. reesei (Examples 14 and 15). The enzymes were purified as described in Example 2. Protein concentrations of purified enzymes were measured by their absorption at 280 nm using a theoretical molar extinction co-efficient, which were calculated from the amino acid sequences (Gill and von Hippel, 1989).
(§4) Kinetic constants (Km and kcat values) and cellobiose inhibition constant (Ki) for Tr CBHI/Cel7A, Ta CBH/Cel7A, At CBH/Cel7A and Ct CBH/Cel7A, were measured using CNPLac (2-Chloro-4-nitrophenyl-β-D-lactoside) as substrate at ambient temperature (22° C.) in 50 mM sodium phosphate buffer, pH 5.7. For the determination of the inhibition constant (Ki), eight different substrate concentrations (31-4000 μM) in the presence of a range of five inhibitor concentrations (0-100 μM or 0-400 μM), which bracket the Ki value, were used. All experiments were performed in microtiter plates and the total reaction volume was 200 μl. The initial rates were in each case measured by continuous monitoring the release of the chloro-nitrophenolate anion (CNP, 2-Chloro-4-nitrophenolate) through measurements at 405 nm using Varioscan (Thermolabsystems) microtiter plate reader. The results were calculated from CNP standard curve (from 0 to 100 μM). Enzyme concentrations used were: Tr CBHI/Cel7A 2.46 μM, Ta CBH/Cel7A 1.58 μM, Ct CBH/Cel7A 0.79 μM and At CBH/Cel7A 3 μM. The Km and kcat constants were calculated from the fitting of the Michaelis-Menten equation using the programme of Origin. Lineweaver-Burk plots, replots (LWB slope versus [Glc2; cellobiose]) and Hanes plots were used to distinguish between competitive and mixed type inhibition and to determine the inhibition constants (Ki).

[7] = substrate: O=[N+]([O-])c1ccc(O[C@@H]2O[C@H](CO)[C@@H](O[C@@H]3O[C@H](CO)[C@H](O)[C@H](O)[C@H]3O)[C@H](O)[C@H]2O)c(Cl)c1; assay: Michaelis-Menten kinetic constants on CNPLac; assay type: biochemical, Chaetomium thermophilum; settings: other: Ct Cel7A, 50 mM sodium phosphate pH 5.7, 22° C.
Experimental: as §3, §4

[8] = Specific activity on MUG3; assay type: biochemical; settings: purified xylanase, 50° C. pH 5.0 10 min
Experimental: (§5) The specific activity of the preparations was determined using 4-methylumbelliferyl-β-D-lactoside (MUL), 4-methylumbelliferyl-β-D-cellobioside (MUG2) or 4-methylumbelliferyl-β-D-cellotrioside (MUG3) as substrate (van Tilbeurgh et al., 1988) in 0.05 M sodium citrate buffer pH 5 at 50° C. for 10 min. Endoglucanase and xylanase activities were determined by standard procedures (according to IUPAC, 1987) using carboxymethyl cellulose (CMC) and birch glucuronoxylan (Bailey et al., 1992) as substrates. Specific activity against Avicel was calculated on the basis of reducing sugars formed in a 24 h reaction at 50° C., pH 5.0, with 1% substrate and 0.25 μM enzyme dosage. The protein content of the purified enzyme preparations was measured according to Lowry et al., 1951. To characterize the end products of hydrolysis, soluble sugars liberated in 24 h hydrolysis experiment, as described above, were analysed by HPLC (Dionex). Purified cellobiohydrolase I (CBHI/Cel7A) of Trichoderma reesei was used as a reference.

[9] = Specific activity on MUG2; assay type: biochemical; settings: purified xylanase, 50° C. pH 5.0 10 min
Experimental: as §5

[10] = Specific activity on MUL; assay type: biochemical; settings: purified xylanase, 50° C. pH 5.0 10 min
Experimental: as §5

[11] = Xylanase activity on birch xylan; assay type: biochemical
Experimental: as §5
Acremonium thermophilum ALKO4245 was grown as described in Example 1. The culture supernatant was incubated at 70° C. for 24 hours after which, it was concentrated by ultrafiltration. The pure xylanase was obtained by sequential purification with hydrophobic interaction and cation exchange chromatography followed by gel filtration. The xylanase activity was determined using birch xylan as substrate (procedure of IUPAC 1987). Protein was assayed by BioRad Protein Assay Kit (Bio-Rad Laboratories) using bovine serum albumin as standard.
Thermoascus aurantiacus ALKO4242 was grown as described in Example 1. The pure xylanase was obtained by sequential purification with hydrophobic interaction, anion, and cation exchange chromatography followed by gel filtration. The xylanase activity was determined using birch xylan as substrate (procedure of IUPAC 1987). Protein was assayed by BioRad Protein Assay Kit (Bio-Rad Laboratories) using bovine serum albumin as standard.

- Hydrolysis products as reducing sugars, SPRUCE [1]: 2.0 mg/mL
- Hydrolysis products as reducing sugars, WILLOW ([3]; EGI, XYL, AXE): 2.8 mg/mL
- Hydrolysis products as reducing sugars, WILLOW [3]: 2.0 mg/mL
- Hydrolysis products as reducing sugars, Avicel [4]: 2.0 mg/mL
- Hydrolysis products as reducing sugars, WOCS ([5]; EGI, XYL, AXE): 4.3 mg/mL
- Hydrolysis products as reducing sugars, WOCS [5]: 2.8 mg/mL
B1: Ta Cel7A: cellobiohydrolase of Thermoascus aurantiacus ALKO4242, gene Ta cel7A, amino acid SEQ ID NO: 2, no CBD (protein)
chain: MYQRALLFSFFLAAARAQQAGTVTAENHPSLTWQQCSSGGSCTTQNGKVVIDANWRWVHTTSGYTNCYTGNTWDTSICPDDVTCAQNCALDGADYSGTYGVTTSGNALRLNFVTQSSGKNIGSRLYLLQDDTTYQIFKLLGQEFTFDVDVSNLPCGLNGALYFVAMDADGGLSKYPGNKAGAKYGTGYCDSQCPRDLKFINGQANVEGWQPSANDPNAGVGNHGSCCAEMDVWEANSISTAVTPHPCDTPGQTMCQGDDCGGTYSSTRYAGTCDPDGCDFNPYRQGNHSFYGPGQIVDTSSKFTVVTQFITDDGTPSGTLTEIKRFYVQNGKVIPQSESTISGVTGNSITTEYCTAQKAAFGDNTGFFTHGGLQKISQALAQGMVLVMSLWDDHAANMLWLDSTYPTDADPDTPGVARGTCPTTSGVPADVESQYPNSYVIYSNIKVGPINSTFTAN
- pH optimum [2]: 5.0

B2: Trichoderma reesei cellobiohydrolase I Tr Cel7A (Tr CBHI/Cel7A) (Trichoderma reesei RUT C-30) (protein)
chain: QSACTLQSETHPPLTWQKCSSGGTCTQQTGSVVIDANWRWTHATNSSTNCYDGNTWSSTLCPDNETCAKNCCLDGAAYASTYGVTTSGNSLSIGFVTQSAQKNVGARLYLMASDTTYQEFTLLGNEFSFDVDVSQLPCGLNGALYFVSMDADGGVSKYPTNTAGAKYGTGYCDSQCPRDLKFINGQANVEGWEPSSNNANTGIGGHGSCCSEMDIWEANSISEALTPHPCTTVGQEICEGDGCGGTYSDNRYGGTCDPDGCDWNPYRLGNTSFYGPGSSFTLDTTKKLTVVTQFETSGAINRYYVQNGVTFQQPNAELGSYSGNELNDDYCTAEEAEFGGSSFSDKGGLTQFKKATSGGMVLVMSLWDDYYANMLWLDSTYPTNETSSTPGAVRGSCSTSSGVPAQVESQSPNAKVTFSNIKFGPIGSTGNPSGGNPPGGNPPGTTTTRRPATTTGSSPGPTQSHYGQCGGIGYSGPTVCASGTTCQVLNPYYSQCL
- Km [6]: 520 µM
- kcat [6]: 0.0433 s⁻¹
- kcat/Km [6]: 83.3 M⁻¹ s⁻¹

B3: Chaetomium thermophilum ALKO4265 cellobiohydrolase Ct Cel7A (Ct CBH/Cel7A), recombinant, SEQ ID NO: 8 (Thermochaetoides thermophila) (protein)
chain: QQACSLTAENHPSLTWKRCTSGGSCSTVNGAVTIDANWRWTHTVSGSTNCYTGNQWDTSLCTDGKSCAQTCCVDGADYSSTYGITTSGDSLNLKFVTKHQYGTNVGSRVYLMENDTKYQMFELLGNEFTFDVDVSNLGCGLNGALYFVSMDADGGMSKYSGNKAGAKYGTGYCDAQCPRDLKFINGEANVGNWTPSTNDANAGFGRYGSCCSEMDVWEANNMATAFTPHPCTTVGQSRCEADTCGGTYSSDRYAGVCDPDGCDFNAYRQGDKTFYGKGMTVDTNKKMTVVTQFHKNSAGVLSEIKRFYVQDGKIIANAESKIPGNPGNSITQEYCDAQKVAFSNTDDFNRKGGMAQMSKALAGPMVLVMSVWDDHYANMLWLDSTYPIDQAGAPGAERGACPTTSGVPAEIEAQVPNSNVIFSNIRFGPIGSTVPGLDGSNPGNPTTTVVPPASTSTSRPTSSTSSPVSTPTGQPGGCTTQKWGQCGGIGYTGCTNCVAGTTCTQLNPWYSQCL
- Km [7]: 1960 µM
- kcat [7]: 0.313 s⁻¹
- kcat/Km [7]: 158 M⁻¹ s⁻¹

B4: At XYN_60: xylanase of Acremonium thermophilum ALKO4245, gene At xyn10A, amino acid SEQ ID NO: 20 (protein)
chain: MRAKQLLAAGLLAPASVSAQLNSLAVAAGLKYFGTAVREANVNGDATYMSYVNNKSEFGQVTPENGQKWDSTEPSQGQFSYSQGDIVPGVAKKNGQVLRCHTLVWYSQLPSWVSSGSWTRATLQSVIETHISNVMGHYKGQCYAWDVVNEAINDDGTWRTSVFYNTFNTDYLAIAFNAAKKADAGAKLYYNDYNLEYNGAKTNTAVQLVQIVQQAGAPIDGVGFQGHLIVGSTPSRSSLATALKRFTALGLEVAYTELDIRHSSLPPSSAALATQGNDFASVVGSCLDVAGCVGITIWGFTDKYSWVPDTFPGSGAALLYDANYSKKPAWTSVSSVLAAKATNPPGGGNPPPVTTTTTTTTTSKPSQPTTTTTTTSPQGPQQTHWGQCGGIGWTGPQSCQSPWTCQKQNDWYSQCL
- Specific activity against MUG3 [8]: 78 nkat/mg
- Specific activity against MUG2 [9]: 54 nkat/mg
- Specific activity against MUL [10]: 33 nkat/mg
- Relative activity at 60° C. as compared to 50° C. ([11]; 10 min, pH 5.0): about 1.2 fold
- Relative activity at 70° C. as compared to 50° C. ([11]; 10 min, pH 5.0): ~1.65 fold
- Specific activity on birch xylan ([11]; purified xylanase, 50° C., procedure of IUPAC 1987): 1800 nkat/mg
